Data published in patent US20090117124A1.

Key:
[1] = molecular target: cynomolgus monkey IgE (in cynomolgus serum, Harlan Sera-Lab Ltd) (cynomolgus monkey); experiment: capture ELISA, Test 2, Cyno 3
[2] = molecular target: cynomolgus monkey IgE (in cynomolgus serum, Harlan Sera-Lab Ltd) (cynomolgus monkey); experiment: capture ELISA, Test 2, Cyno 2
[3] = molecular target: cynomolgus monkey IgE (in cynomolgus serum, Harlan Sera-Lab Ltd) (cynomolgus monkey); experiment: capture ELISA, Test 1, Cyno 2
[4] = molecular target: cynomolgus monkey IgE (in cynomolgus serum, Harlan Sera-Lab Ltd) (cynomolgus monkey); experiment: capture ELISA, Test 2, Cyno 1
[5] = molecular target: cynomolgus monkey IgE (in cynomolgus serum, Harlan Sera-Lab Ltd) (cynomolgus monkey); experiment: capture ELISA, Test 1, Cyno 3
[6] = molecular target: cynomolgus monkey IgE (in cynomolgus serum, Harlan Sera-Lab Ltd) (cynomolgus monkey); experiment: capture ELISA, Test 2, Cyno 5
[7] = molecular target: cynomolgus monkey IgE (in cynomolgus serum, Harlan Sera-Lab Ltd) (cynomolgus monkey); experiment: capture ELISA, Test 1, Cyno 5
[8] = molecular target: cynomolgus monkey IgE (in cynomolgus serum, Harlan Sera-Lab Ltd) (cynomolgus monkey); experiment: capture ELISA, Test 1, Cyno 7
[9] = molecular target: cynomolgus monkey IgE (in cynomolgus serum, Harlan Sera-Lab Ltd) (cynomolgus monkey); experiment: capture ELISA, Test 1, Cyno 1
[10] = molecular target: cynomolgus monkey IgE (in cynomolgus serum, Harlan Sera-Lab Ltd) (cynomolgus monkey); experiment: capture ELISA, Test 2, Cyno 7

E25 (antibody) was tested, and the IgE concentration detected [1] was 135 ng/mL, the IgE concentration detected [2] was 104 ng/mL and the IgE concentration detected [3] was 52 ng/mL. The IgE concentration detected [4] was 146 ng/mL, the IgE concentration detected [5] was 166 ng/mL and the IgE concentration detected [6] was 252 ng/mL. For the same substance, the IgE concentration detected [7] was 232 ng/mL, the IgE concentration detected [8] was 0 ng/mL and the IgE concentration detected [9] was 172 ng/mL. For the same substance, the IgE concentration detected [10] was 0 ng/mL.
